Source: the nanobody polyreactivity screen of Harvey et al. (2022)

Assay: yeast display, Sf9 membrane polyspecificity reagent, FACS + sequencing; frameworks hold sequencing errors
Method in brief: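 Galactose induction of a Saccharomyces cerevisiae BJ5465 synthetic nanobody display library ran 36–48 hours. The cells were then stained for 1 hour at 4 °C with 10% biotinylated, detergent-solubilized Sf9 membrane reagent, pulled down on streptavidin microbeads and FACS-sorted into low and high (top ~1%) gates on expression and reagent-binding fluorescence. Labels for polyreactivity follow the gate of origin.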

Row | Sequence | polyreactivity (PSR sort gate)
1 | QVQLVESGGGLVQAGGSLRLSCAASGIFAWNAMGWYRQAPGKERELVAAISWSGGSTYADSVKGRFTISRDNAKNTVYLQMNSLKPEDTAVYYCAKVSSLTSKSDYWGQGTQVTVSS | low polyreactivity
2 | QVQLVESGGGLVQAGGSLRLSCAASGIFDPNAMGWYRQAPGKERELVAAITSGGSTNYADSVKGRFTISRDNAKNTVYLQMNSLKPVDTAVYYCNADSYDEIKYGYWGQGTQVTVSS | low polyreactivity
3 | QVQLVESGGGLVQAGGSLRLSCAASGIFDRYAMGWYRQAPGKERELVAAISYNAGSTYYADSVKGRFTISRDNAKNTVYLQMNSLKPEDTAVYYCAARGFGTVNGKLYGYWGQGTQVTVSS | high polyreactivity
4 | QVQLVESGGGLVQAGGSLRLSCAASGIFDYYVMGWYIQAPGKERELVAAISKSVGSTYYADSVKGRFTISRDNAKNTVYLQMNSLKPEDTAVYYCAVENRYRFGYWGQGTQVTVSS | low polyreactivity
5 | QVQLVESGGGLVQAGGSLRLSCAASGIFFQQYAMGWYRLAPGKERELVAAISRGGTRTYYADSVKGRFTISRDNAKNTGYLQMNSLKPEDTAVYYCAADRGYVSYDYWGQGTQVTVSS | high polyreactivity
6 | QVQLVESGGGLVQAGGSLRLSCAASGIFGGYAMGWYRQAPGKERELVAAIRYSSGSTYYADSVKGRFTISRDNAKNTVYLQMKSLKPEDTAVYYCAAEVVEAPDNDYWGQGTQVTVSS | low polyreactivity
7 | QVQLVESGGGLVQAGGSLRLSCAASGIFGGYAMGWYRQAPGKERELVAAISYSGGTTYYADSVKGRFTISRDNAKNTVYLQMNSLKPEDTAVYYCNADDPDYLVSYRYDYWGQGTQVTVSS | low polyreactivity
8 | QVQLVESGGGLVQAGGSLRLSCAASGIFLVYAMGWYRQAPGKERELVAAIRSDASTNYADSVKGRFTISRDNAKNTVYLQMNILKPEDTAVYYCNTAQLVSDEFDYWGQGTQVTVSS | low polyreactivity
9 | QVQLVESGGGLVQAGGSLRLSCAASGIFPWFAMGWYRQAPGKERELVAVITGGDSTNYADSVKGRFTISRDNAKNTVYLQMNSLKPEDTAVYYCAARNTGPVQYYYWGQGTQVTVSS | low polyreactivity
10 | QVQLVESGGGLVQAGGSLRLSCAASGIFRSNAMGWYRQAPGKERELVAGISSGGGTNYADSVKGRFTISRDNAKNTVYLQMNSLKPDDTAVYYCAKERIYFYYWYVYTDLVYEYDYWGQGTQVTVSS | low polyreactivity
11 | QVQLVESGGGLVQAGGSLRLSCAASGIFSYYAMGWYRQAPGKERELVATISRRGSSTYYADSVKGRFTISRDNAKNTVYLQMNSLKPEDTAVYYCNADIGWGRFSQSFDYWGQGTQVTVSS | low polyreactivity
12 | QVQLVESGGGLVQAGGSLRLSCAASGIIFAGNAMGWYRQAPGKEREFVAAISYRGGTTYYADSVKGRFTISRDNAKNTVYLQMNSLKPEDTAVYYCAADPRSKGFYYGYDYWGQGTQGTVSS | high polyreactivity
13 | QVQLVESGGGLVQAGGSLRLSCAASGIIFAGNAMGWYRQAPGKERELVAAISSGTTTNYADSVKGRFTISRDNAKNTVYLQMNRLKPEDTAVYYCAADDFPYKSDYWGQGTHVTVSS | low polyreactivity
14 | QVQLVESGGGLVQAGGSLRLSCAASGIIFAHYAMGWYRQAPGKERELVAAISSSGATTYYADSVKGRFTISRDNAKNTVYFQMNSLKPEDTAVYYCNTETYHVRRLFDYWGQGTQVTVSS | low polyreactivity
15 | QVQLVESGGGLVQAGGSLRLSCAASGIIFALYAMGWYRQAPGKERELVATITYSGGSTYYADSVKGRFTISRDNAKNTVYLQMNSLKPEDSAVYYCNRDQWPWESGYAYNYWGQGTQVTVSS | low polyreactivity
16 | QVQLVESGGGLVQAGGSLRLSCAASGIIFATNGMGWYRQAPGKEREFVASSTNGGSTNYADSVKGRFTISRDNAKNTVYLQMNSLKPEDTAVYYCAAAASDDYDYPTEYEYWGQGTQVTVSS | high polyreactivity
17 | QVQLVESGGGLVQAGGSLRLSCAASGIIFAYYAMGWYRQAPGKERELVAAISWNSGYTYYADSVKGRFTISRDNAKNTVYLQMNSLKPEDSAVYYCAAESYYSYSYYRPYEYYYWGQGTQLTVSS | high polyreactivity
18 | QVQLVESGGGLVQAGGSLRLSCAASGIIFAYYAMGWYRQAPGKERELVASITNTGSTYYADSVKGRFTISRDNAKNTVYLQMNSLKPEDTAVYFCNAVLSSNTKWRYPGDYLGQGTQVTVSS | low polyreactivity
19 | QVQLVESGGGLVQAGGSLRLSCAASGIIFDDNAMGWYRQAPGKERELVAAISSGSTTNYADSVKGRFTISRDNEKNTVYLQMTSLKPEDTAVYYCAAVDGLAFDYWGQGTQVTVSS | low polyreactivity
20 | QVQLVESGGGLVQAGGSLRLSCAASGIIFDDYAMGWYRQAPGKERELVAAISVSGGSTYYADSVKGRFTISRDNAKNTVYLQMNSLKPEDTAVYYCAARLIVGRFLRYDYWGQGTQVSVSS | high polyreactivity
21 | QVQLVESGGGLVQAGGSLRLSCAASGIIFDEYAMGWYRQAPGKERELVAAISSRGTNTYYADSVKGRFTISRDHAKNTVYLQMNSLKPEDTAVYYCAARRPPVTRHFGYWGQGTQVTVSS | high polyreactivity
22 | QVQLVESGGGLVQAGGSLRLSCAASGIIFDGNAMGWYRQAPGKERELVASITSDSSTNYADSVKGRFTISRDNAKNTVYLQMNSLKPEDTAVYYCAADHWIAPRRDYWGQGTQVTVSS | low polyreactivity

Row | Sequence | polyreactivity (PSR sort gate)
23 | QVQLVESGGGLVQAGGSLRLSCAASGIIFDLNAMGWYRQAPGKERELVAAITSGGSTYYADSVKGRFTISRDNAKNTVYLQMNSLKPEDTAVYYCAADYQAGDKLYDYWGQGTQVTLSS | low polyreactivity
24 | QVQLVESGGGLVQAGGSLRLSCAASGIIFDNYAMGWYRQAPGKERELVAAISPGGSTYYADSVKGRFTISRDNAKNTVYLQMNSLKPEDTAVYYCNARKYTWYSSRFIRFDYWGQGTQVTVSS | high polyreactivity
25 | QVQLVESGGGLVQAGGSLRLSCAASGIIFDRYAKGWYRQAPGKERELVAAITYGGGSTYYADSVKGRFTISRDNAKNTVYLQMNSLKPEDTSVYYCAAVPRSGMYYWGQGTQVTVSS | high polyreactivity
26 | QVQLVESGGGLVQAGGSLRLSCAASGIIFDRYAMGWYRQAPGKEREFVAAISRRGGSTYYADSVKGRFTISRDNAKNTVYLQMNSLKPEDTAVYYCAKEIRYYSSVSESDYWGQGTQVTVSS | high polyreactivity
27 | QVQLVESGGGLVQAGGSLRLSCAASGIIFDRYTMGWYRQAPGKERELVAAIDDSDDSTYYADSVKGRFTISRDNAKNTVYLQMNSLKPEDTAVYYCAAEYTWFEYIDFGYWGQGTQVTVSS | high polyreactivity
28 | QVQLVESGGGLVQAGGSLRLSCAASGIIFDSYAMGWYRPAPGKERELVAAITSDSGRTYYADSVKGRFTISRDNAKNTVYLQMNSLKPEDTAVYYCAKRWDCPYDYWGQGTQVTVSS | low polyreactivity
29 | QVQLVESGGGLVQAGGSLRLSCAASGIIFDWYAMGWYRQAPGKERELVAAISDSGDTTYYADSVKGRFTISRDNAKNTVYLQMNSLKPEDTAVYYCAAVSYQYYDLDYWGQGTQVTVSS | high polyreactivity
30 | QVQLVESGGGLVQAGGSLRLSCAASGIIFDYNAMGWYRPAPGKERELVAAITSTDNTNYADSVKGRFTISRDNAKNTVYLQMNCLKPEDTAVYYCNTDYWLSVVYAMDYWGQGTQVTVSS | low polyreactivity
31 | QVQLVESGGGLVQAGGSLRLSCAASGIIFDYYAMGWYRQAPGKERELVAAINRNGGTTYYADSVKGRFTISRDNAKNSVYLQMNSLKPEDTAVYYCAAVDFGWITYYYWGQGTQVTVAS | high polyreactivity
32 | QVQLVESGGGLVQAGGSLRLSCAASGIIFDYYAMGWYRQAPGKERELVAAISKRGGSTYYADSVKGRFTISRDNAKNTVYLQMNSLKPEDTAVYYCAAEYSKRWWYYYWGQGTQVTVSS | high polyreactivity
33 | QVQLVESGGGLVQAGGSLRLSCAASGIIFDYYAMGWYRQAPGKERELVASNSWSGGGTYYADSVKGRFTISRDNAKNTVYFQMNRLNPEDTAVYYCAADGSTVNAPRWSDPYDYWGQGTQVTVSS | low polyreactivity
34 | QVQLVESGGGLVQAGGSLRLSCAASGIIFDYYTMGWYRQAPGKARELVAGITRSGGRTYYADSVKGRFTISRDNAKNTVYLQMNSLKPEETAGYYCAAVQRRTYVKYESWGQGTQVTVSS | high polyreactivity
35 | QVQLVESGGGLVQAGGSLRLSCAASGIIFERNAMGWYRQAPGKERELVAAISSNGGSTYYADSVKGRFTISRDNAKNTVYLQMNSLKPEDTAVYYCAAQGVYAGSRYYYWGQGTQVTVSS | high polyreactivity
36 | QVQLVESGGGLVQAGGSLRLSCAASGIIFFFYAMGWYRQEPGKERELVAAISDEGVSTDYADSVKGRFTISRDNAKNTVYLQMNSLKPEDTAVYYCAAKTERVYPWFSFGYWGQGTQVTVSS | low polyreactivity
37 | QVQLVESGGGLVQAGGSLRLSCAASGIIFFRYAMGWYRQAPGKERELVAGISGSGGSTYYADSVKGRFTISRDNAKNTVYLQMNSLKPEDTAVYYCAKQWKSNIYYQGGYWGQGTQVTVSS | high polyreactivity
38 | QVQLVESGGGLVQAGGSLRLSCAASGIIFFSNAMGWYRQAPAQEMELVAAITGGSSTNYADSVKGRFTISRDNAKNTVYLQMNSLKPEDTAVYYCNAPTKSTPRSEPIPYYEFDYWGQGTQVTVSS | low polyreactivity
39 | QVQLVESGGGLVQAGGSLRLSCAASGIIFFYNAMGWYRQAPGKERELVAAISSDGSTYYADSVKGRFTISRDNAKNTVYLQMNSLKPEDTAVYYCNAGSLRYGPYNHWGQGTQVTVSS | low polyreactivity
40 | QVQLVESGGGLVQAGGSLRLSCAASGIIFGDNAMGWYRQAPGKERELVAAITIGGTSTYYADSVKGRFTISRDNAKNTVYLQMNSLKPEDTAVYYCAKTILYDCDYWGQGTQVTVSS | low polyreactivity
41 | QVQLVESGGGLVQAGGSLRLSCAASGIIFGENAMGWYRQAPGKERELVAAINSVGSTYYADSVKGRFTISRDNAKNTVYLQMNSLKPEDTAVYYCNARLAKVRVKDDYWGQGTQVTVSS | low polyreactivity
42 | QVQLVESGGGLVQAGGSLRLSCAASGIIFGENAMGWYRQAPGKERELVAAITESGGSTYYADSVKGRFTISRDNAKNTVYLQMNSLKPEDTAVYYCNALPFRYGKRRGYWGQGTQVTVSS | low polyreactivity
43 | QVQLVESGGGLVQAGGSLRLSCAASGIIFGGNVMGRYRQAPGKVRELVAAITWSGGTTYYADSVKGRFTISRDNAKNTVYLQMNSLKPEDTAVYYCAADRVYLDYVAGTYDYWGQGTQVTVSS | low polyreactivity
